Assay: soluble fraction after stress (log2 fold change); higher = more stays soluble; pooled small domains, quantitative proteomics
Settings: stress: pH 4
How it was run: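 Pooled custom libraries of small protein domains were subjected to pH 4 and measured by high-throughput quantitative proteomics. The log2 fold change in soluble amount per domain is reported, higher values meaning more remained soluble. This is used as a measure of aggregation propensity.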

Point of comparison: “HMQTTPAGHELLIRYFANGNIRERGMMKDGKRNGIWIFYDESGMEIRKTKYKMGKIISDYDLN”, “soluble fraction (log2)” value 0.0593. Against it:
- HMLAAGTPLTVVTESSNLNIRQEPSTEAAVVGKAAKGEIVTLVEQTSGEWWKVSTKDGEEGYAYSRYL — lower, -0.809
- HMNVSDIENKLNEMLSPLEKKVMVLYLEGKSYVEIGELLGRHTKSVDNALQRVKRKLEIYLKNRK — higher, 0.295
- HMEILNYVVSDGQSGIRIDRYLSDSNEDLSRSYIQKLLKEQKVTVQGTFVKANYKVQAGDVITVEVPDMA — within 0.2 log units, 0.238
- HMVVTRVKAIDVVNIRKSDSETADKLGKAAVGDEFDLLEKKGNGWSKISYEGGEAYIKSEFLEPSE — within 0.2 log units, 0.034
- HMSTMTEQEAFGLWERINDFIARTGNEPNRNSNDAHEVRMAEALNFIRIKVAEQRNSQSNSEAQNN — lower, -1.39
- HMDMRLADLIGRDGITITFMRPSGKVEIDGEIYDAVSDVGLIDKNEEVEVIKFENAQLVVTKKNKN — within 0.2 log units, 0.108
- HMRPEARAASLSDEERKIFDYLAANGEKTIDNISVAVKMSAADILKNITLMSAKGLVYMPSAGRYGVKGN — within 0.2 log units, 0.0795
- HMPGRPSRISDAVKDQIDHDLRKNPRDLGYSQNLWDGKLLSHHLKERYQITLGIRQAQRLFHQLGFRQR — within 0.2 log units, -0.0409
- HMFDTVKIGKRIAELRKKRDMTQFELADRLGISYQAVSNWERGNSMPDIAKLPELAEIFGVTVDEILG — within 0.2 log units, 0.135
- HMEQWVSIEVEPGIRLDVALTEATQKSRSFIQNLIAEQRVLVNGQPKKANYKVRPGDHVELNYPEPT — lower, -0.415
- HMNDGTIRVGTNVTIKPSAKRWATGQNIYYGVKGKTYKVIQMNGNRLLLDKVISWINKGDVYVPGS — within 0.2 log units, 0.192
- HMLQKVELSDNEKFIFDSLQKEQKMALLRLKELVNLSNKAWDVSVKNLTKQGLVKVTKIDEELLIEI — lower, -1.24
- HMVIREVNDNPVSAEELRLGDRVKVLSLGQNGEIVTLPDEKGELTVQVGILKAKVNLDDIMLI — within 0.2 log units, 0.0234
- HMQWQPSEEAMQRLEQHGIPRAFSFSQLDAFVLQGQEQGSNRNDWNTRFFRFIKNQWVYAQN — lower, -1.17
- HMAISEEEATNLALERVPGASAQDLRIQLEFDDGVQKYEGDIIYDGKEYDFEIDANTGTFLEWSE — within 0.2 log units, 0.22
- HMTKAGVDAWTRGDYAAAVKEWQAQAAKGDADAIFNLGQAFKLGKGVPQDLIKAEQLFGQAAA — lower, -0.466
- HMLKAKKIPVSDLEKFKGIVAEDVVSKAKALILPRGSNLSWLSNVAKKNLIAKLKAEGIEYISVYSS — within 0.2 log units, 0.0669
- HMDDVYMVPVKDIAINDLKQEFEKLGIPNIQNTIPDKDLNFFIVRKDDLALVNYAIEKTMER — lower, -0.523
- HMATKVSSGATVRDVADLLGLSSAELIKKLMMMGEMATLTQTLTDESIKSIADEYDRKIEIVSAAE — lower, -1.22
- HMDNEIIEEEKITTLMITHNMRDAIKYGNRLIMLNEGRVIFDISGEEKKNLTVQELLEKFEK — within 0.2 log units, 0.22
- HMNVNVSFTQLRHKAEHAIQAKNWSEARNLLTLATLMRPTHRNVARRLKAVEQRNRLFRRLLLILTHRKV — lower, -0.229
- HMNVAELIEGHEAEIAEVLKEFSLLYLMRLADELGEMTKSSSGNGPFQVLKGLVYEEIARRG — lower, -0.416
- HMEKTIQIYDNIIIKDFAEKMEVSPSQVITKLIGLGVMANLNQPIDINSAVIVGKEFGFNVESM — lower, -0.952
- HMLSDHGLNDRQIMVIAGLMNGGTVTVRSIESQYGVSLNTARADVKMLVDAGLLTETGREVNMKVYSWSGK — lower, -0.22
- HMFPATAPQLKAVHAILGKQGISDELDKLARVNEWLVGLNKEPVAAISELDKHTTSGLIDHLQGELNE — within 0.2 log units, -0.131
- HMVINTRHTGFVVDDLERFINFYLGLGLKLISRKVESGEYIDKLVGLKGTKLEWAKLSLPDNSMIEILKYH — lower, -0.454
- HMAPAILTVQVKPDKIREIIGPGGKMIRMIQSETNTRVEVDDSGLVKIAAVSKEEGEAALKMVSDITME — lower, -0.177
- HMYMKGKVKWFDSKKGYGFITSENGKEIFVHFSGIAAKGFKSLNEGQTVEFEVANGAKGEQAVNVTV — within 0.2 log units, 0.178
- HMQKLKINKYKDPKGEIRYYIASTIRNGNKSSTHNLLSLGKHSDLLKEHSDVEAYLKERLNEAMESGI — higher, 0.307
- HMLADRANMAPAALRQIMTAIDGGNVTPKQIESATGMAHATVARALRKMLDDGLIANDGKGRYTVLT — within 0.2 log units, 0.238
- HMPGPAEMPGWITARAKKLGGQITPEAARALAAEMGSDTEQASREIEKLLTYVDYRRPVEEEDVALLTA — within 0.2 log units, 0.00808
- HMSIQREIILEVIKNNRTHPTAEEIYILVTKKEPKISRSTVYRNINILVEKGIIEKITIATGPDRYDY — within 0.2 log units, -0.126
- HMGPRKAGSEATRQKILDAAEILFAERGFHSVSVRDITTEAGVDVALINYHFGSKQLLFETVFMRR — lower, -0.472
- HMRLSPTMVETLIAMLNRNAYPAYENNSRTFASLEERGLIQPDIEGNWSLTDTGHQTALKLLK — within 0.2 log units, 0.0279
- HMGSQLYTLEVEADEKISLIENNPLLIQKIYLKDNNLFSYKIASSSKTEIASIEKELEKNPSIKRLETA — lower, -0.502
- HMSNYPYLLRTYEGKLAVFTDDLVQPDLVFDVYVRTLPELDQQQLSRGIRVKTYDELTSMIEDYI — lower, -0.956
- HMGVKTDKYYYQMATETRVNKHYGLSNQYIATLISEYPRSPLIPNASILSKKNNADLALIDQSINQR — within 0.2 log units, 0.155
- HMRKVTDTHELSSVVKSVIDQWEEKAAEYRAGKSGLLGFFVGEVMKKTGGAADPEAAKSLLQDRLD — lower, -0.285
- HMFDDLSTNLRDLAHNYIEKYSPSKQQLKVFLLKKYLMKFKGSKTKKEISEIIDKIISNLEENKYLNDEL — within 0.2 log units, 0.179
- HMDGKTALQEIVASSGWSPPEYKVSESGPDHDKDFVAYAIVNGVAYPEGHGKSKREAEQVAARIAFEALSK — within 0.2 log units, -0.00195
- HMGYDDLEPFDANGRLRWSDQELVLAFGRHRGATLRTLELNDPSYLRWLLSGNGPLEQQDIQRLEQILES — lower, -1.44
- HMTESIHVGSKVTINNNAKRWATGQNIYSGVKGKTYTVIQMNGSRLLLDKVISWINKGDVHLPGS — within 0.2 log units, 0.0896
- HMAEQEELDAIRPDLDGQEIMDILGIKPGREVGAARNFLLELRLDEGPLGYDEAVSRLLTWWAERT — lower, -1.2
- HMNPETLTNSSVIKMSKANLSDELITDMILNSPVKFDLSAGAIKTLESEGVTPAVLESMKNAASK — within 0.2 log units, 0.0677
- HMFELTVGTPIRVIREPYFGKLGTVTELPAQLMVVESGTEVRVLKAKIEGEGEVLVPRANVEIIATG — lower, -0.77
- HMEKYIVNQEEQGKRLDIYVVNKSSELTRTAVQRLIEQEHILVNGRKQKASYKVLEGDIITIERV — lower, -0.649
- HMGRGSEDEQMRGLAVILAEQKQIMQTLGVENEVVKPEQYINTLKRMAELNGFKDTDQFFSIPQ — lower, -0.587
- HMQGVNLTETEKNFIAQVLSPLLKQGQSLYQIRTNHPEIKLSVKTLYTYIESGIFKESGINNFSLRRQ — lower, -0.319
- HMPSLGADIRALRKSRKMTLVALADALGRSVGWLSQVERDKSHATIADLGRMAEVLDVSISSFL — lower, -0.209
- HMASMHDGVAARLRAMVFERELAPGEFIDERRLAQQWQISRTPLREALKVLAAEGLVELVPRRGARVV — lower, -0.275
- HMPVSVAEQKQILAEALQERGHATFRELIENADNRMIVVGRFLALLELYRDGTVRFEQERALGELTIHWEE — lower, -1.22
- HMRRGKLGMASRLEQIPGIGPKKRKALLKAFGNSIDAIKSAPVEDLMKVKGINLVLAESIKEL — higher, 0.374
- HMSRQAPIGHRIRGRRKDIGMTQNALAKAAGISPSYLNLIEHNRRSIGGGLLMRIAAILDIHPHTL — within 0.2 log units, 0.0837
- HMEQTMNDMLKLVDLLPQNQQDIVRMRFYENMSFKEIAESNQISINTALGRMRYAILNLRKYAAERNL — lower, -1.57
- HMNEIEIHINKLFGKISDSKRKQELMQEITQNLNEKVSDLVSQGQTREQAVKKAIEDFGDIDDLKDELDN — within 0.2 log units, -0.0968
- HMDDKVGKVFNYVQEKILTGEWDIGDKITPEISLSKELGVSRSVVREAIKKFVALNILSRTQGGGTYVNNL — lower, -0.621
- HMVTIYQRIMLVLEDKQVSVNALSKLVDMSQTTLNTQLKGERTLSANVVAKVLVAYPDVSAEWLMRGVGTM — lower, -0.426
- HMDGTAKVAHMLVNELETFNRLKKHEIAYMLHIQPETLSRILNKLTRNGTIEIEKNSVVILNIQELKEIY — lower, -0.271
- HMGGELLSLRRIGTLTGISYPTLLRYVARYGEQIPQTGTGRSRRFPPAAVPVFQELRATRGRAPRATA — within 0.2 log units, 0.0768
- HMSVSATQMDAFVRQLRARLSSADGLDDAARLVRQDLEPFLGRFSDETERDFAAAIEQVRGSIRPVEI — lower, -1.73
- HMHPVEPDDPDQHILFQHLRGQDQVHIDALIRLSGWTADKVSSTLLFMELQGLVKQLPGMYYALE — lower, -1.07
- HMGEPVASSREVAKRFGKEHKHVLAAIRQILVAENSATKFFHETAFEYRGQRFPEYLMNRDGFALLAMGF — lower, -1.35
- HMLVLAENMDVIFTRRTLDDHVVVDYKTTIGEMVKNDEIKGENMDELISAVEKDGYELVSSTSGEIIFLND — lower, -0.704
- HMSNLKKRRLEKNLTLDDVGKLVGVSAATISRWESGDIENMRSDKIVKLANALEISPAVILGW — lower, -0.641
- HMRLPVELTDREVEVLRLLAQAMSNGEIARELYIGEATVKTHVSNVLQKLGARDRVAAVVWAHRYGL — lower, -1.16
- HMEDKIIVTVPGEYHLERIDRFLAANLEEDLSRSLIQRYIRENLITVNGEAVRANYKVKTDDEILITFPQ — lower, -1.04
- HMQILNVFSKHGIKPISPQIGDKFDPQLHEAMFEAPVPGTKAGDIIEVSSEGFMLYDRLLRPAHVGVSSN — within 0.2 log units, -0.138
- HMPNYIDAISALLTLKGVGDRKHASTMANILNLQYNSAKQKLDGKRGITLDEVKKVFQYFNEPF — lower, -0.76
- HMIIYGLNPVKDFINLFPNKISTLFISKNKLSDSEMKSVVNINTVYVSDAELKRITGTTKHQSLAAEID — lower, -0.721
- HMRPNREKDMADLEKLAPFLLQMLTNYAQMTGDEKPLNAFITRFGYAAQIRDIQDFFMGPWHPA — lower, -0.24
- HMSSDLSNVVKIIDTLKHKKGALLPILHQIQREIGYIPLKTIDTIAKKLQQTPAEIHGVISFYHQFRTS — within 0.2 log units, 0.22
- HMLDYKSALQELLQAQRRSRPRYEVISTEGPDHERVFEVAVWLDNEELGRGKGRSKREAEHQAAQAALTQL — lower, -0.626
- HMVQIVINKEVQTTSQTILRENAGTSSRNIGYVDPNVKLRATLDRNSFYFIPEKKGWIMKSRVKLIEDLS — within 0.2 log units, 0.0552
- HMANDNFPLKLGSKGPRVLQLKTMLIQSLSNDALPKGRSSDAFDSELEALLSRNNLPTVIDETNFRVLTK — within 0.2 log units, 0.0149
- HMTPAKQVSAKAERWIDQLGSSDWEKREEAAAELKKLGGAAKSALEKALKNADPEVASKAEELLEALES — within 0.2 log units, 0.213

— the domain aggregation screens of Martell et al. (2025)
